The text below walks through data of patent US20020037999.

The test system of the data set is p54 SAPKβ (JNK3) fused to the WIN-ZIP B1 leucine zipper and Myc tag.

In the case of “v-Src fused at the N-terminus with HA tag alone”, the “tyrosine phosphorylation of p54 (anti-Myc immunoprecipitates probed with anti-PTyr)” value is recorded as “p54 is phosphorylated on tyrosine only when the WIN-ZIP A1-Src fusion is present (so not with v-Src carrying the HA tag alone)”. Take “v-Src fused at the N-terminus with HA tag plus WIN-ZIP A1 leucine zipper”: the “tyrosine phosphorylation of p54 (anti-Myc immunoprecipitates probed with anti-PTyr)” value is on record as “p54 is phosphorylated on tyrosine only when the WIN-ZIP A1-Src fusion is present”.
